Results from patent publication US12630850B2, “Enzymatic break down of chlorogenic acid in sunflower-containing products” (Chapman University, priority 2022, dated 2026).

Key:
[1] = HPLC quantification of CGA in sunflower flour cookies; assay type: biochemical; conditions: SFF cookies; 0.09 mg/g flour, pre- and direct treatment
Source text: Cookie formulations and baking conditions. The cookie dough formulation consisted of baking soda (2.2 g), salt (2.2 g), whole egg (46.8 g), maple syrup (76.3 g), vanilla extract (2.2 g), flour (145.8 g), and butter (87.5 g). CGA esterase treatments in SFF, utilized almond butter instead of SFB. The wet (sunflower or almond butter, maple syrup, eggs, and vanilla extract) and dry (flour, baking soda, and salt) ingredients were mixed separately and subsequently combined and mixed for 75 s with an electric hand mixer. The dough was rolled out and cut to the following dimensions: 6 mm thickness and 40 mm diameter. Cookies were baked for 7 min in a convection oven preheated to 149° C. (300° F.) and allowed to cool at room temperature for 10 min before further analysis.
Preparation of sunflower flour cookies with CGA esterase. […]
High-performance liquid chromatography (HPLC) quantification of phenolic content in sunflower cookies. […] The extract was filtered through 0.20 μm syringe filters and analyzed with an Agilent 1260 Infinity II system (Agilent Technologies) equipped with a quaternary pump (G7111B), vial sampler (G7129A), and diode array detector (HS G7117C). […] CGA and caffeic acid concentrations were detected at 320 nm and quantified using a standard curve between 0.00-0.10 mg ml^−1 CGA (y=172287x, R^2=0.994) and caffeic acid (y=248557x, R^2=0.967).

[2] = CGA esterase activity in the sunflower meal supernatant and pellet (HPLC); assay type: biochemical; conditions: for Pellet mg CA/g meal / Pellet mg CGA/g meal / Supernatant mg CA/g meal / Supernatant mg CGA/g meal: enzyme present
Source text: Sunflower meal and sunflower protein treatment with chlorogenic acid esterase. Sunflower seeds were ground using a KitchenAid coffee grinder in two 30 s increments and sieved through a 500 μm filter to make SFM. Two defatting methods were used: cold press and hexane extraction. To make cold pressed SFM, ground seeds were pressed in a Carver Hydraulic Unit Model 3912 3852-0 five times to a pressure of 9,000-10,000 psi. For hexane extracted SFM, fat was removed from ground seeds using a Soxhlet apparatus in 250 mL hexane for 18 h and subsequently dried using a Fischer Scientific Isotemp Oven Model 516G at 45° C. for 3 h. Cold pressed, hexane extracted, and undefatted SFM were then sieved through a 500 μm filter.
Chlorogenic acid esterase activity in the sunflower meal supernatant and pellet. SFM (1 g) that was cold pressed, hexane extracted, or undefatted was buffered in 10 mL of 50 mM HEPES, pH 8.0. CGA esterase was added to a final concentration of 0.756 μM (0.02 mg mL^−1). Untreated samples received a solution of 50 mM HEPES, pH 8.0 instead of CGA esterase. Samples treated with CGA esterase were allowed to sit for 10 min and subsequently centrifuged at 10,000 rpm for 10 min. The supernatant was filtered through a 0.2 μm filter and loaded onto an HPLC while the pellet was lyophilized for 20 h. After lyophilization, 10 mL of 70% ethanol was then added to the dried pellet for 1 h to extract CGA. The pellet was subsequently centrifuged at 10,000 rpm for 10 min. The supernatant was then filtered through a 0.2 μm filter and loaded onto an HPLC.
HPLC quantification of CGA and CA in sunflower meal and protein isolates. All solutions were diluted ten-fold in 0.1% formic acid in HPLC-grade water before analysis. Quantification of CGA and CA concentration was performed using an Agilent 1260 series HPLC instrument (Agilent Technologies) equipped with a quaternary pump, an automated sample injector, a diode array detector, and a 4.6 mm×150 mm Luna C18(2) column with a 5 μm particle size and 100 Å pore size (Phenomenex). The injection volume was 20 μL. To elute analytes, mobile phases composed of 0.1% formic acid in HPLC-grade water (A) and 0.1% formic acid in HPLC-grade acetonitrile (B) were used in a linear gradient. The gradient is as follows: 0 to 13% B in 1 min, up to 27% B at 8 min, up to 100% B at 8.5 min, isocratic at 100% B to 9.5 min, 100% B returned to 0% B at 9.6 min with 3 min post-time. The concentrations of CGA and CA were calculated from peak integration data based on 10-point standard curve that spanned a concentration range of 0 to 0.1 mg mL^−1.

[3] = Song & Baik, 2017; cited from earlier work

B1: CGA esterase: CGA esterase from L. helveticus (Genbank ID: WP_025283955.1, Uniprot ID: U6F2K7), expressed in Escherichia coli; the dimer is the active form (protein, listed as Lactobacillus helveticus)
chain: MSRITIERDGLTLVGDREEPFGEIYDMAIIMHGFAANRNTDLLRQIADDLRDENVASVRFDFNGHGESDGKFEDMTVCNEIADGKAILDYVRTDPHVRDIFLVGHSQGGVVASMLAGLYPDVVKKVVLLAPAAQLKDDALRSNTQGATYDPNHIPDWPLVGNKLGMKLGGFYLRTAQVLPIYEVSQCFTRPVSVIAGTNDQWDPKYAKKYDEVYENSELHMIPNADHRFSGGYKDMAADLTAQFLKPAF
[1]
  Effect of enzyme addition on CGA: nearly complete elimination of CGA
[2]; SFM, in 10 min
  Conversion of CGA into caffeic and quinic acid: ~100%
[2]; cold pressed SFM
  Pellet mg CA/g meal: 0.81 ± 0.11 mg CA/g meal
  Pellet mg CGA/g meal: 0.02 ± 0.00 mg CGA/g meal
  Supernatant mg CA/g meal: 3.33 ± 0.15 mg CA/g meal
  Supernatant mg CGA/g meal: 0.00 ± 0.00 mg CGA/g meal
[2]; defatted samples
  CGA cleavage: > 99%
[2]; hexane extracted SFM
  Pellet mg CA/g meal: 1.55 ± 0.14 mg CA/g meal
  Pellet mg CGA/g meal: 0.03 ± 0.00 mg CGA/g meal
  Supernatant mg CA/g meal: 3.77 ± 0.10 mg CA/g meal
  Supernatant mg CGA/g meal: 0.00 ± 0.00 mg CGA/g meal
[2]; undefatted SFM
  Pellet mg CA/g meal: 0.34 ± 0.03 mg CA/g meal
  Pellet mg CGA/g meal: 0.11 ± 0.01 mg CGA/g meal
  Supernatant mg CA/g meal: 1.52 ± 0.08 mg CA/g meal
  Supernatant mg CGA/g meal: 0.00 ± 0.00 mg CGA/g meal
[2]; undefatted samples
  CGA cleavage: ca. 96%
[3]
  Km: 153 µM
  Vmax: 0.5596 mM/min/mg
